The text below walks through data of FireProtDB (doi:10.1021/bi992119u).

B1: Steroid Delta-isomerase, P07445 (parent)
chain: MNLPTAQEVQGLMARYIELVDVGDIEAIVQMYADDATVEDPFGQPPIHGREQIAAFYRQGLGGGKVRACLTGPVRASHNGCGAMPFRVEMVWNGQPCALDVIDVMRFDEHGRIQTMQAYWSEVNLSVREPQ

Variants of B1 are the subject of the data set. Conditions: Pseudomonas putida; pH 7; 25 °C; Urea; CD; Sodium phosphate 25 mM; reversible: yes; structure 1OH0; whole UniProt chain shown.

In the case of V101L, the denaturant m value was 3.32 kcal/mol/M, the “denaturant midpoint (higher = more stable)” value (from here on “denaturant midpoint”) was found to be 4.19 M and the unfolding free energy came to 20.5 kcal/mol.
The corresponding values for Y32F are 3.23 kcal/mol/M, 5.49 M and 24.3 kcal/mol.
For the variant Y57F V101L, the denaturant m value came to 2.31 kcal/mol/M, the “denaturant midpoint” value is 4.25 M and the unfolding free energy was determined as 16.4 kcal/mol.
The corresponding values for Y16F are 3.1 kcal/mol/M, 4.3 M and 19.9 kcal/mol.
Taken in the same sequence, the figures for Y57F were 2.98 kcal/mol/M, 4.77 M and 20.8 kcal/mol.
Taken in the same sequence, the figures for Y32F Y57F were 3.05 kcal/mol/M, 5.81 M and 24.3 kcal/mol.
With Y32F V101L, the denaturant m value was 2.52 kcal/mol/M, the “denaturant midpoint” value was determined as 4.45 M and the unfolding free energy amounted to 17.8 kcal/mol.
